The record followed here is WO2012019024A2 (dated 2012).

Numbering of substitutions follows the chain as printed. A value given as a limit tells only on which side of the number the result lay.

Experiment [1] concerns the target T1, human HER3 (human, UniProt P21860 20-1342). Description: flow cytometry competition on SKBR3 cells, antibody varied against 10 nM biotinylated HRG1β1 ligand.
Experiment [2] addresses T1, human HER3. The experiment can be described thus: Kd named as the concentration of the biotinylated reference antibody in the flow cytometry competition assay. (In general: Flow cytometry measures light scatter and fluorescence of single cells or particles in a stream.)
The target in experiment [3] is T1, human HER3. The experiment can be described thus: cell-based or functional assay.
In experiment [4] the target is macaque HER3 extracellular domain on 300-19 cells (pSRa-chiHER3) (macaque; human). Description: flow cytometry on 300-19 cells expressing maHER3 extracellular domain, apparent Kd.
For experiment [5], the target named is T1, human HER3. The experiment can be described thus: flow cytometry on SKBR3 cells (endogenous HER3), apparent Kd.
The target of experiment [6] is T1, human HER3. Description: flow cytometry on huHER3-overexpressing 300-19 cells, apparent Kd (EC50 of the binding curve).
Experiment [7] deals with macaque HER3 extracellular domain on 300-19 cells (pSRa-chiHER3) (macaque; human). The experiment can be described thus: cell-based or functional assay.
The target of experiment [8] is T1, human HER3. Description: flow cytometry on SKBR3 cells, apparent Kd.
Target sequence in this assay (P21860 20-1342 limits assumed): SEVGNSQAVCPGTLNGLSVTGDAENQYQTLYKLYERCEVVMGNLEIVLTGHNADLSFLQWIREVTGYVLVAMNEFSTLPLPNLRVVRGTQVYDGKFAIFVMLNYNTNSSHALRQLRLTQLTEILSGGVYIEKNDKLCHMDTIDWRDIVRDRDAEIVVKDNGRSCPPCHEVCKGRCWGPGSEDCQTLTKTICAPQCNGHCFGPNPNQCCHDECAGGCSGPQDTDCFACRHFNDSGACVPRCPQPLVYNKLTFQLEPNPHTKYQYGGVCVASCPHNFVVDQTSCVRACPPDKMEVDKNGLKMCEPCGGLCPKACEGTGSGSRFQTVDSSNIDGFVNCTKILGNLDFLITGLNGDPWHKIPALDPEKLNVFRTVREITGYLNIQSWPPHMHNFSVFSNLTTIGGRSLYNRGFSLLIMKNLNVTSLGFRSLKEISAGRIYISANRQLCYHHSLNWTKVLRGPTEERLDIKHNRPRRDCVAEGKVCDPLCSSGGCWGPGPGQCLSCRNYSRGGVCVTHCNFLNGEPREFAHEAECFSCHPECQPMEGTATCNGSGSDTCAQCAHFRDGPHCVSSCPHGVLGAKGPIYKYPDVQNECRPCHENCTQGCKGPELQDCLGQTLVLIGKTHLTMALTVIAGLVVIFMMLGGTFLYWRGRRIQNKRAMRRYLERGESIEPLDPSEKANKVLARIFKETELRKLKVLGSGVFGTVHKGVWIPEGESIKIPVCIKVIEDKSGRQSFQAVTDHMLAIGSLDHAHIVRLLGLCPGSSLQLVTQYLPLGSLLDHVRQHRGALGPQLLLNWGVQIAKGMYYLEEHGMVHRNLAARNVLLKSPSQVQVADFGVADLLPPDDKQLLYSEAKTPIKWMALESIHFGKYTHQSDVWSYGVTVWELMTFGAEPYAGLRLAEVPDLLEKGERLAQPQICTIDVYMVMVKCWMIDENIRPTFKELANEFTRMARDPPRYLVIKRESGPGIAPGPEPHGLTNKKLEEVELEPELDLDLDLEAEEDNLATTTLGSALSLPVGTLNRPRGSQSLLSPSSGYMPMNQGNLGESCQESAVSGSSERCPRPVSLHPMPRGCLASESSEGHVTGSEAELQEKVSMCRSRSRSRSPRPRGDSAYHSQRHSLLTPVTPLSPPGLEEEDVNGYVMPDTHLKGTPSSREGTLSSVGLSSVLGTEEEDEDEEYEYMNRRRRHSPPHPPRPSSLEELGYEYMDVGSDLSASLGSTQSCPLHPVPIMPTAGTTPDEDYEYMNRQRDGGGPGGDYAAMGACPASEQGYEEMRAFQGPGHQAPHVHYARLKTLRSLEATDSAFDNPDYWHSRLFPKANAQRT
Experiment [9] deals with macaque HER3 extracellular domain on 300-19 cells (pSRa-chiHER3) (macaque; human). The experiment can be described thus: flow cytometry on maHER3-overexpressing 300-19 cells, apparent Kd.
Experiment [10] concerns the target T1, human HER3. The experiment can be described thus: flow cytometry competition on SKBR3 cells, naked antibody varied, competitor biotinylated muHER3-8.
Experiment [11] addresses T1, human HER3. The experiment can be described thus: flow cytometry on huHER3-expressing 300-19 cells.
The target in experiment [12] is T1, human HER3. Description: flow cytometry on huHER3-expressing 300-19 cells, apparent Kd, comparison of murine and humanized antibody.
For experiment [13], the target named is T2, chL1-S1 chimeric human/murine HER-3 ECD Fc fusion (human; murine, UniProt P21860 20-632).
T2 construct: also called chLl-Sl; chimeric ECD comprising human L1-S1 domains and murine L2-S2 domains; not shown: murine IgG2A hinge, CH2, and CH3 region (pmuFc2ANL vector)
T2 chain: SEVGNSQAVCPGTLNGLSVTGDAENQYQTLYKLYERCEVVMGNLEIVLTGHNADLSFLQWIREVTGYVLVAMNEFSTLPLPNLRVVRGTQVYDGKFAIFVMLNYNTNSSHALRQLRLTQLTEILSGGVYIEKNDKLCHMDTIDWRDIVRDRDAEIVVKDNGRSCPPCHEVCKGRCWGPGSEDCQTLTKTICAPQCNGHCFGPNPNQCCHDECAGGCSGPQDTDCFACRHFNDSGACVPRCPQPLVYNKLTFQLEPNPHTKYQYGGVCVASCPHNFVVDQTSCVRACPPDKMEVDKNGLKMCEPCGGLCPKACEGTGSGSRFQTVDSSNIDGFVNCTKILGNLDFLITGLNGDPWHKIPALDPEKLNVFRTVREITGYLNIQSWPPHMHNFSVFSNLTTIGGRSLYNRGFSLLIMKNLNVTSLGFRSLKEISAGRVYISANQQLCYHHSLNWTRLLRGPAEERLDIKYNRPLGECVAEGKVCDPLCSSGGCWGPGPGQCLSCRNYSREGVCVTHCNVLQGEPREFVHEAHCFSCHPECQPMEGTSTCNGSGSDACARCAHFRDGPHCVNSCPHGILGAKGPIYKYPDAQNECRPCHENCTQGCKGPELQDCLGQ
Description: ELISA on chL1-S1 Fc (Figure 30). (In general: ELISA stands for enzyme-linked immunosorbent assay.)

For experiment [14], the target named is T3, murine HER-3 ECD Fc fusion (murine, UniProt Q61526 20-632).
T3 construct: 'similarly constructed' to the human fusion; also called murine HER-3-Fc; not shown: murine IgG2A hinge, CH2, and CH3 region (pmuFc2ANL vector)
Description: ELISA on murine HER-3 ECD Fc (Figure 29).

In experiment [15] the target is T1, human HER3. Description: flow cytometry on huHER3-expressing 300-19 cells (Figure 15).
In experiment [16] the target is T4, human HER-3 ECD Fc protein (human; murine, UniProt P21860 20-632).
T4 construct: also called Fc fusion of human HER-3; not shown: murine IgG2A hinge, CH2, and CH3 region (pmuFc2ANL vector)
Description: ELISA on human HER-3 ECD Fc (Figure 28).

Experiment [17] concerns the target T1, human HER3. The experiment can be described thus: flow cytometry competition on SKBR3 cells, competitor biotinylated muHER3-8.

By EC50 is commonly meant the concentration giving half of the maximal effect. Read a low EC50 as a more potent agent.

Chain of macaque HER3 extracellular domain on 300-19 cells (pSRa-chiHER3) (macaque; human) (P21860 644-1342, form in doubt): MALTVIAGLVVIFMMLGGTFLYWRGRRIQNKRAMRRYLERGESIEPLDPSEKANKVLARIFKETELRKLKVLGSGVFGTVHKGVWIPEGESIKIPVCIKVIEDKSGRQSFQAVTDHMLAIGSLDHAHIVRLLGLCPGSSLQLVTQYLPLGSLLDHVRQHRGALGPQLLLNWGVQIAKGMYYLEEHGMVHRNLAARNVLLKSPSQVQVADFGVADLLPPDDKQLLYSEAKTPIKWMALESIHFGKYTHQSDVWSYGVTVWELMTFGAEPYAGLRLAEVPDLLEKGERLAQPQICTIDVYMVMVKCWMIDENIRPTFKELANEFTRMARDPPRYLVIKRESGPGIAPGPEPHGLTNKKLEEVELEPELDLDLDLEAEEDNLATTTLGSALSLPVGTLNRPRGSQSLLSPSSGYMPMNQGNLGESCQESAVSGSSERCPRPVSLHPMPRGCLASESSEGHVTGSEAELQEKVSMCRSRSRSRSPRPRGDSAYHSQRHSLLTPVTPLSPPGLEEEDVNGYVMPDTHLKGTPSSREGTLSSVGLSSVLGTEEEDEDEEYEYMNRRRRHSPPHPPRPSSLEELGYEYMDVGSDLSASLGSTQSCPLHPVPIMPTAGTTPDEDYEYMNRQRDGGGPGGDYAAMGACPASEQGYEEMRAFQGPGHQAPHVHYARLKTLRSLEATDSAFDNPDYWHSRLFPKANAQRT

In the case of U3-Pharma/Amgen's U1-59 antibody, the concentration giving a half-maximal response (EC50) with human HER3 [1] was 2.2 nM. The molecule further came in with a Kd with human HER3 [2] of 1 nM.
Regarding chKTI-SPDB-DM4 conjugate (antibody), in the experiment with human HER3 [3], the in vitro cytotoxicity EC50 (WST-8 surviving fraction), huHER3-overexpressing 300-19 cells amounted to 4.4 nM.
On to chKTI-SMCC-DM1 conjugate (antibody), for which the in vitro cytotoxicity EC50 (WST-8 surviving fraction), huHER3-overexpressing 300-19 cells with human HER3 [3] worked out at 53 nM.

B1: muHER3-10 antibody (antibody, mouse IgG1, V domains shown)
VH: EVQLQQSGPELVKPGVSMKISCKASGYSFTDYTMNWVKQSHGKNLEWIGLINPYNDITAYNQKFKGKATLSVNKSSSTAYMELLSLTSEDSAVYYCARRGPRGAWFAYWGQGTLVTVSA
VL: NIVLTQSPASLAVSLGQRATISCRASTSVYNYGNSFMHWYQQMPGQPPKLLIYLASNLESGVPARFSGSGSRTDFTLTIDPVEADDAATYYCQQNSEDPWTFGGGTKLEIKR
notes: also called HER3-10 (murine)
On to B1, for which the “HRG1β1-induced AKT phosphorylation (pAKT level, % of ligand-only control), whole cell ELISA, MCF7 cells, 10 µg/ml antibody” value in the experiment with human HER3 [3] was less than 50%. For the same molecule, in the experiment with human HER3 [3], the “HRG1β1-induced HER3 phosphorylation (pHER3 level, % of ligand-only control), whole cell ELISA, MCF7 cells, 10 µg/ml antibody” value was less than 20%. Also, the results for the Kd (in [4]; with human HER3 [5]; in the experiment with human HER3 [6]) were 0.042 nM, 0.052 nM and 0.068 nM, respectively.

B2: muHER3-3 antibody (antibody, mouse IgG1, kappa, V domains shown)
VH: QVQLQQPGAELVMPGASVKMSCKASGYTFTDYWIHWVKQRPGQGLEWIGAIDTDTYTSYNQQFKGKATLTVDESSSTAYMQLSSLTSEDSAVYYCARSLLRLLYFDYWGQGTTLTVSS
VL: DIVMTQSPATLSVTPGDRVSLSCRASQSITDYLHWYQQKSHESPRLLIKFASQSISGIPSRFSGSGSGSDFTLSINSVEPEDVGVYYCQNGHSFPLTFGAGTKLELKR
notes: also called HER3-3 (murine)
B2: in the experiment with human HER3 [1], the EC50 stood at 0.32 nM. Also, the “HRG1β1-induced AKT phosphorylation (pAKT level, % of ligand-only control), whole cell ELISA, MCF7 cells, 10 µg/ml antibody” value with human HER3 [3] is less than 50%. Also, the “HRG1β1-induced HER3 phosphorylation (pHER3 level, % of ligand-only control), whole cell ELISA, MCF7 cells, 10 µg/ml antibody” value in the experiment with human HER3 [3] is less than 20%. For the same molecule, the Kd in [4] is 0.14 nM; in the experiment with human HER3 [5], 0.21 nM; with human HER3 [6], 0.3 nM.

B3: huHER3-8-SMCC-DM1 conjugate (antibody, V domains shown)
VH: QVQLQESGPGLVKPSQSLSLTCTVTGSSITSDYAWNWIRQHPGNKLEWMGFISYSGSTSYNPSLKSRISITRDTSKNQFFLHLSSVTAADTATYYCSRRLGRLYYFDYWGQGTLLTVSS
VL: EIVMTQSPATLSVTPGDRVSLSCRASQSINDYLHWYQQKPGQSPRLLIKFASHSISGIPDRFSGSGSGSDFTLTISSVEPEDVGVYYCQNGHSFPWTFGGGTKLEIKR
modifications: SMCC-DM1 maytansinoid linked to the antibody, 3.5-4 DM1 molecules per antibody; attachment residues and chain not stated
notes: Immunoconjugate of huHER3-8 (v.1.00) with human constant regions; also called huHER3-8-SMCC-DMl
In experiment [7], B3 showed an in vitro cytotoxicity EC50 (WST-8 surviving fraction), maHER3-overexpressing 300-19 cells of 0.059 nM. Also, the results for the Kd (in the experiment with human HER3 [8]; in experiment [9]) were 0.49 nM and 0.29 nM, respectively. Moreover, the “in vitro cytotoxicity EC50 (WST-8 surviving fraction), huHER3-overexpressing 300-19 cells” value with human HER3 [3] stood at 0.17 nM.

B4: muHER3-8 antibody (antibody, mouse IgG1, V domains shown)
VH: B3 VH with Q1D, K13T, H41F, A88S, A89E, R99K, L114T
VL: B2 VL with T30N, Q53H, S74T, L96W, A100G, L106I
notes: also called HER3-8 (murine)
As for B4, the EC50 in the experiment with human HER3 [1] worked out at 0.29 nM; with human HER3 [10], 0.76 nM. The “HRG1β1-induced AKT phosphorylation (pAKT level, % of ligand-only control), whole cell ELISA, MCF7 cells, 10 µg/ml antibody” value with human HER3 [3] is less than 50%. The “HRG1β1-induced HER3 phosphorylation (pHER3 level, % of ligand-only control), whole cell ELISA, MCF7 cells, 10 µg/ml antibody” value in the experiment with human HER3 [3] is less than 20%. Also, the “HRG1β1-induced MCF7 cell proliferation (WST-8, % of ligand-only control), 10 µg/ml antibody” value with human HER3 [3] was found to be 40%. Also, the Kd amounted to 0.24 nM in [4], 0.31 nM in the experiment with human HER3 [5], 0.2 nM with human HER3 [2] and 0.23 nM with human HER3 [6].

B5: huHER3-3-SMCC-DM1 conjugate (antibody, V domains shown)
VH: B2 VH with Q5V, L11V, M13K, Q62K, K64Q
VL: B3 VL with S20T, N30T, H53Q, T74S, W96L, G100Q, I106L
modifications: SMCC-DM1 maytansinoid linked to the antibody, 3.5-4 DM1 molecules per antibody; attachment residues and chain not stated
As for B5, the “in vitro cytotoxicity EC50 (WST-8 surviving fraction), huHER3-overexpressing 300-19 cells” value with human HER3 [3] stood at 0.19 nM.

B6: huHER3-8-SPDB-DM4 conjugate (antibody, V domains shown)
VH: B3 VH
VL: B3 VL
modifications: SPDB-DM4 maytansinoid linked to the antibody, 3.5-4 DM4 molecules per antibody; attachment residues and chain not stated
notes: Immunoconjugate of huHER3-8 (v.1.00) with human constant regions
Regarding B6, the in vitro cytotoxicity EC50 (WST-8 surviving fraction), maHER3-overexpressing 300-19 cells in experiment [7] was determined as 0.099 nM. Also, the Kd turned out to be 0.29 nM with human HER3 [8] and 0.23 nM in experiment [9]. Moreover, the “in vitro cytotoxicity EC50 (WST-8 surviving fraction), huHER3-overexpressing 300-19 cells” value in the experiment with human HER3 [3] is 0.18 nM.

B7: huHER3-8v.1.00 antibody (antibody, V domains shown)
VH: B3 VH
VL: B3 VL
notes: Recombinant humanized antibody with human constant regions; also called huHER3-8 naked antibody
Regarding B7, the Kd worked out at 0.14 nM with human HER3 [8], 0.19 nM in experiment [9] and 0.12 nM with human HER3 [12]. For the same molecule, the “fold increase of binding affinity against muHER3-8” value with human HER3 [11] was roughly 2 fold. The midpoint of the response with human HER3 [10], the EC50, lay at 0.24 nM. Besides, the binding result in experiment [13] is reported as “binds”.

B8: huHER3-3 antibody (antibody, V domains shown)
VH: B2 VH with Q5V, L11V, M13K, Q62K, K64Q
VL: B3 VL with S20T, N30T, H53Q, T74S, W96L, G100Q, I106L
notes: Recombinant humanized antibody with human constant regions (pAbGlNeo / pAbKZeo plasmids), expressed in HEK 293T; also called humanized (resurfaced) HER3-3
In the case of B8, the binding result (in experiment [14]; with human HER3 [15]; in experiment [16]; in experiment [13]) was “binds” throughout.

B9: huHER3-8-PEG4-mal-DM1 conjugate (antibody, V domains shown)
VH: B3 VH
VL: B3 VL
modifications: PEG4-mal-DM1 maytansinoid linked to the antibody, 3.5-4 maytansinoid molecules per antibody; attachment residues and chain not stated
notes: Immunoconjugate of huHER3-8 (v.1.00) with human constant regions; also called huHER3-8-PEG-mal-DM1; huHER3-8-PEG4-Mal-DMl
B9 came in with an in vitro cytotoxicity EC50 (WST-8 surviving fraction), maHER3-overexpressing 300-19 cells in experiment [7] of 0.045 nM. Besides, the figures for the Kd (with human HER3 [8]; in experiment [9]) were 0.27 nM and 0.28 nM, respectively.

B10: huHER3-8v.1.01 antibody (antibody, V domains shown)
VH: B3 VH with R99K
VL: B3 VL
notes: Recombinant humanized antibody with human constant regions; murine lysine 95 of heavy chain CDR3 retained
B10: the binding result with human HER3 [17] is reported as “binds”.
